Reference: the Human Domainome abundance scans (Beltran et al. 2025)
± gives the uncertainty stated by the source.

B1: Storkhead-box protein 2, residues 64 to 141; numbered along this chain, Q9P2F5 (parent)
chain: SPISQSQFIPLGEILCLAISAMNSARKPVTQEALMEHLTTCFPGVPTPSQEILRHTLNTLVRERKIYPTPDGYFIVTP

Variants of: B1
Experiment: abundance fitness (aPCA) (normalised: wild type 0, dead -1); higher = more abundant; growth selection in yeast, the domain comes from the species named
Conditions: Homo sapiens

Row | Variant | abundance fitness
1 | SPISQSQFIPLGEILCLAISAMNSARKPVTQEALMEHLTTCFPGVHTPSQEILRHTLNTLVRERKIYPTPDGYFIVTP [P46H] | -0.14 ± 0.072
2 | SPISQSQFIPLGEILCLAISAMNSARKPVTQEALMEHLTTCFPGVGTPSQEILRHTLNTLVRERKIYPTPDGYFIVTP [P46G] | -0.133 ± 0.032
3 | SPISQSQFIPLGEILCLAISAMNSARKPVTQEALMEHLTTCFPGVCTPSQEILRHTLNTLVRERKIYPTPDGYFIVTP [P46C] | -0.078 ± 0.067
4 | SPISQSQFIPLGEILCLAISAMNSARKPVTQEALMEHLTTCFPGVATPSQEILRHTLNTLVRERKIYPTPDGYFIVTP [P46A] | -0.079 ± 0.046
5 | SPISQSQFIPLGEILCLAISAMNSARKPVTQEALMEHLTTCFPGVKTPSQEILRHTLNTLVRERKIYPTPDGYFIVTP [P46K] | -0.243 ± 0.1
6 | SPISQSQFIPLGEILCLAISAMNSARKPVTQEALMEHLTTCFPGVITPSQEILRHTLNTLVRERKIYPTPDGYFIVTP [P46I] | 0.015 ± 0.085
7 | SPISQSQFIPLGEILCLAISAMNSARKPVTQEALMEHLTTCFPGVETPSQEILRHTLNTLVRERKIYPTPDGYFIVTP [P46E] | -0.067 ± 0.039
8 | SPISQSQFIPLGEILCLAISAMNSARKPVTQEALMEHLTTCFPGVLTPSQEILRHTLNTLVRERKIYPTPDGYFIVTP [P46L] | -0.128 ± 0.035
9 | SPISQSQFIPLGEILCLAISAMNSARKPVTQEALMEHLTTCFPGVFTPSQEILRHTLNTLVRERKIYPTPDGYFIVTP [P46F] | -0.408 ± 0.08
10 | SPISQSQFIPLGEILCLAISAMNSARKPVTQEALMEHLTTCFPGVDTPSQEILRHTLNTLVRERKIYPTPDGYFIVTP [P46D] | -0.081 ± 0.075
11 | SPISQSQFIPLGEILCLAISAMNSARKPVTQEALMEHLTTCFPGLPTPSQEILRHTLNTLVRERKIYPTPDGYFIVTP [V45L] | -0.05 ± 0.031
12 | SPISQSQFIPLGEILCLAISAMNSARKPVTQEALMEHLTTCFPGNPTPSQEILRHTLNTLVRERKIYPTPDGYFIVTP [V45N] | -0.209 ± 0.13
13 | SPISQSQFIPLGEILCLAISAMNSARKPVTQEALMEHLTTCFPGCPTPSQEILRHTLNTLVRERKIYPTPDGYFIVTP [V45C] | -0.003 ± 0.05
14 | SPISQSQFIPLGEILCLAISAMNSARKPVTQEALMEHLTTCFPGRPTPSQEILRHTLNTLVRERKIYPTPDGYFIVTP [V45R] | -0.06 ± 0.03
15 | SPISQSQFIPLGEILCLAISAMNSARKPVTQEALMEHLTTCFPGKPTPSQEILRHTLNTLVRERKIYPTPDGYFIVTP [V45K] | -0.222 ± 0.091
16 | SPISQSQFIPLGEILCLAISAMNSARKPVTQEALMEHLTTCFPGSPTPSQEILRHTLNTLVRERKIYPTPDGYFIVTP [V45S] | -0.113 ± 0.043
17 | SPISQSQFIPLGEILCLAISAMNSARKPVTQEALMEHLTTCFPGFPTPSQEILRHTLNTLVRERKIYPTPDGYFIVTP [V45F] | 0.067 ± 0.069
18 | SPISQSQFIPLGEILCLAISAMNSARKPVTQEALMEHLTTCFPGHPTPSQEILRHTLNTLVRERKIYPTPDGYFIVTP [V45H] | 0.078 ± 0.12

Row | Variant | abundance fitness
19 | SPISQSQFIPLGEILCLAISAMNSARKPVTQEALMEHLTTCFPGQPTPSQEILRHTLNTLVRERKIYPTPDGYFIVTP [V45Q] | -0.007 ± 0.076
20 | SPISQSQFIPLGEILCLAISAMNSARKPVTQEALMEHLTTCFPGTPTPSQEILRHTLNTLVRERKIYPTPDGYFIVTP [V45T] | -0.031 ± 0.061
21 | SPISQSQFIPLGEILCLAISAMNSARKPVTQEALMEHLTTCFPGYPTPSQEILRHTLNTLVRERKIYPTPDGYFIVTP [V45Y] | 0.051 ± 0.12
22 | SPISQSQFIPLGEILCLAISAMNSARKPVTQEALMEHLTTCFPGDPTPSQEILRHTLNTLVRERKIYPTPDGYFIVTP [V45D] | -0.207 ± 0.091
23 | SPISQSQFIPLGEILCLAISAMNSARKPVTQEALMEHLTTCFPGIPTPSQEILRHTLNTLVRERKIYPTPDGYFIVTP [V45I] | 0.026 ± 0.08
24 | SPISQSQFIPLGEILCLAISAMNSARKPVTQEALMEHLTTCFPGAPTPSQEILRHTLNTLVRERKIYPTPDGYFIVTP [V45A] | -0.088 ± 0.043
25 | SPISQSQFIPLGEILCLAISAMNSARKPVTQEALMEHLTTCFPGWPTPSQEILRHTLNTLVRERKIYPTPDGYFIVTP [V45W] | 0.028 ± 0.042
26 | SPISQSQFIPLGEILCLAISAMNSARKPVTQEALMEHLTTCFPGEPTPSQEILRHTLNTLVRERKIYPTPDGYFIVTP [V45E] | -0.155 ± 0.067
27 | SPISQSQFIPLGEILCLAISAMNSARKPVTQEALMEHLTTCFPGMPTPSQEILRHTLNTLVRERKIYPTPDGYFIVTP [V45M] | -0.109 ± 0.06
28 | SPISQSQFIPLGEILCLAISAMNSARKPVTQEALMEHLTTCFPGPPTPSQEILRHTLNTLVRERKIYPTPDGYFIVTP [V45P] | -0.168 ± 0.064
29 | SPISQSQFIPLGEILCLAISAMNSARKPVTQEALMEHLTTCFPQVPTPSQEILRHTLNTLVRERKIYPTPDGYFIVTP [G44Q] | -0.055 ± 0.068
30 | SPISQSQFIPLGEILCLAISAMNSARKPVTQEALMEHLTTCFPTVPTPSQEILRHTLNTLVRERKIYPTPDGYFIVTP [G44T] | -0.037 ± 0.054
31 | SPISQSQFIPLGEILCLAISAMNSARKPVTQEALMEHLTTCFPSVPTPSQEILRHTLNTLVRERKIYPTPDGYFIVTP [G44S] | 0.016 ± 0.042
32 | SPISQSQFIPLGEILCLAISAMNSARKPVTQEALMEHLTTCFPYVPTPSQEILRHTLNTLVRERKIYPTPDGYFIVTP [G44Y] | -0.036 ± 0.12
33 | SPISQSQFIPLGEILCLAISAMNSARKPVTQEALMEHLTTCFPWVPTPSQEILRHTLNTLVRERKIYPTPDGYFIVTP [G44W] | -0.103 ± 0.056
34 | SPISQSQFIPLGEILCLAISAMNSARKPVTQEALMEHLTTCFPVVPTPSQEILRHTLNTLVRERKIYPTPDGYFIVTP [G44V] | -0.111 ± 0.035
35 | SPISQSQFIPLGEILCLAISAMNSARKPVTQEALMEHLTTCFPRVPTPSQEILRHTLNTLVRERKIYPTPDGYFIVTP [G44R] | 0.117 ± 0.032
